This passage reports Kd results from US20240400708A1.

Assay [1] concerns the target feline FcRn complex (FcRn-α subunit and β-microglobulin), biotin labeled (feline). Briefly: SPR, pH 6.
The target is the same in assay [2]. The assay is described as follows: SPR, pH 7.4.
The target of assay [3] is feline FcRn complex (FcRn-α subunit and β-microglobulin) (feline). The assay is described as follows: SPR (Biacore), FcRn on SA chip, pH 6.

Turning to “feline IgG1a S434Y/S434F (as printed) (antibody)”, the results for the Kd in assay [1] and in assay [2] were 3.61 nM and 94.8 nM, respectively.
Consider feline IgG1a T403R (antibody), for which the values for the Kd in assay [1] and in assay [2] were 6.22 nM and 840 nM, respectively.
The matching figures for “feline IgG1a S252H/S428M/D312P (ID No. 215) (antibody)”: 3.24 nM and 41.2 nM.

B1: feline IgG1a S434G (antibody, part only; not given: Variable domains, not shown: another chain or arm of the molecule)
constant: ASTTAPSVFPLAPSCGTTSGATVALACLVLGYFPEPVTVSWNSGALTSGVHTFPAVLQASGLYSLSSMVTVPSSRWLSDTFTCNVAHPPSNTKVDKTVRKTDHPPGPKPCDCPKCPPPEMLGGPSIFIFPPKPKDTLSISRTPEVTCLVVDLGPDDSDVQITWFVDNTQVYTAKTSPREEQFNSTYRVVSVLPILHQDWLKGKEFKCKVNSKSLPSPIERTISKAKGQPHEPQVYVLPPAQEELSRNKVSVTCLIKSFHPPDIAVEWEITGQPEPENNYRTTPPQLDSDGTYFVYSKLSVDRSHWQRGNTYTCSVSHEALHGHHTQKSLTQSPGK
In the case of B1, the Kd in assay [1] was 9.58 nM; in assay [2] it was 21.6 nM.

B2: feline IgG1a D312P (antibody, part only; not given: Variable domains, not shown: another chain or arm of the molecule)
constant: ASTTAPSVFPLAPSCGTTSGATVALACLVLGYFPEPVTVSWNSGALTSGVHTFPAVLQASGLYSLSSMVTVPSSRWLSDTFTCNVAHPPSNTKVDKTVRKTDHPPGPKPCDCPKCPPPEMLGGPSIFIFPPKPKDTLSISRTPEVTCLVVDLGPDDSDVQITWFVDNTQVYTAKTSPREEQFNSTYRVVSVLPILHQPWLKGKEFKCKVNSKSLPSPIERTISKAKGQPHEPQVYVLPPAQEELSRNKVSVTCLIKSFHPPDIAVEWEITGQPEPENNYRTTPPQLDSDGTYFVYSKLSVDRSHWQRGNTYTCSVSHEALHSHHTQKSLTQSPGK
With B2, the Kd amounted to 3.96 nM in assay [1] and 2960 nM in assay [2].

B3: feline IgG1a S252F (antibody, part only; not given: Variable domains, not shown: another chain or arm of the molecule)
constant: ASTTAPSVFPLAPSCGTTSGATVALACLVLGYFPEPVTVSWNSGALTSGVHTFPAVLQASGLYSLSSMVTVPSSRWLSDTFTCNVAHPPSNTKVDKTVRKTDHPPGPKPCDCPKCPPPEMLGGPSIFIFPPKPKDTLFISRTPEVTCLVVDLGPDDSDVQITWFVDNTQVYTAKTSPREEQFNSTYRVVSVLPILHQDWLKGKEFKCKVNSKSLPSPIERTISKAKGQPHEPQVYVLPPAQEELSRNKVSVTCLIKSFHPPDIAVEWEITGQPEPENNYRTTPPQLDSDGTYFVYSKLSVDRSHWQRGNTYTCSVSHEALHSHHTQKSLTQSPGK
Take B3: the Kd amounted to 123 nM in assay [1] and 5960 nM in assay [2].

B4: feline IgG1a A431K (antibody, part only; not given: variable domains and light chain, not shown: another chain or arm of the molecule)
constant: ASTTAPSVFPLAPSCGTTSGATVALACLVLGYFPEPVTVSWNSGALTSGVHTFPAVLQASGLYSLSSMVTVPSSRWLSDTFTCNVAHPPSNTKVDKTVRKTDHPPGPKPCDCPKCPPPEMLGGPSIFIFPPKPKDTLSISRTPEVTCLVVDLGPDDSDVQITWFVDNTQVYTAKTSPREEQFNSTYRVVSVLPILHQDWLKGKEFKCKVNSKSLPSPIERTISKAKGQPHEPQVYVLPPAQEELSRNKVSVTCLIKSFHPPDIAVEWEITGQPEPENNYRTTPPQLDSDGTYFVYSKLSVDRSHWQRGNTYTCSVSHEKLHSHHTQKSLTQSPGK
In the case of B4, the Kd worked out at 10.1 nM in assay [1] and 9.39 nM in assay [2].

B5: feline IgG1a S252H (antibody, part only; not given: Variable domains, not shown: another chain or arm of the molecule)
constant: ASTTAPSVFPLAPSCGTTSGATVALACLVLGYFPEPVTVSWNSGALTSGVHTFPAVLQASGLYSLSSMVTVPSSRWLSDTFTCNVAHPPSNTKVDKTVRKTDHPPGPKPCDCPKCPPPEMLGGPSIFIFPPKPKDTLHISRTPEVTCLVVDLGPDDSDVQITWFVDNTQVYTAKTSPREEQFNSTYRVVSVLPILHQDWLKGKEFKCKVNSKSLPSPIERTISKAKGQPHEPQVYVLPPAQEELSRNKVSVTCLIKSFHPPDIAVEWEITGQPEPENNYRTTPPQLDSDGTYFVYSKLSVDRSHWQRGNTYTCSVSHEALHSHHTQKSLTQSPGK
Consider B5, for which the Kd in assay [1] turned out to be 49.9 nM; in assay [2] it was 8410 nM.

B6: feline IgG1a S252Y (antibody, part only; not given: Variable domains, not shown: another chain or arm of the molecule)
constant: ASTTAPSVFPLAPSCGTTSGATVALACLVLGYFPEPVTVSWNSGALTSGVHTFPAVLQASGLYSLSSMVTVPSSRWLSDTFTCNVAHPPSNTKVDKTVRKTDHPPGPKPCDCPKCPPPEMLGGPSIFIFPPKPKDTLYISRTPEVTCLVVDLGPDDSDVQITWFVDNTQVYTAKTSPREEQFNSTYRVVSVLPILHQDWLKGKEFKCKVNSKSLPSPIERTISKAKGQPHEPQVYVLPPAQEELSRNKVSVTCLIKSFHPPDIAVEWEITGQPEPENNYRTTPPQLDSDGTYFVYSKLSVDRSHWQRGNTYTCSVSHEALHSHHTQKSLTQSPGK
As to B6, the results for the Kd in assay [1] and in assay [2] were 893 nM and 12700 nM, respectively.

B7: feline IgG1a S428Y (antibody, part only; not given: Variable domains, not shown: another chain or arm of the molecule)
constant: ASTTAPSVFPLAPSCGTTSGATVALACLVLGYFPEPVTVSWNSGALTSGVHTFPAVLQASGLYSLSSMVTVPSSRWLSDTFTCNVAHPPSNTKVDKTVRKTDHPPGPKPCDCPKCPPPEMLGGPSIFIFPPKPKDTLSISRTPEVTCLVVDLGPDDSDVQITWFVDNTQVYTAKTSPREEQFNSTYRVVSVLPILHQDWLKGKEFKCKVNSKSLPSPIERTISKAKGQPHEPQVYVLPPAQEELSRNKVSVTCLIKSFHPPDIAVEWEITGQPEPENNYRTTPPQLDSDGTYFVYSKLSVDRSHWQRGNTYTCSVYHEALHSHHTQKSLTQSPGK
On to B7, for which the Kd in assay [1] worked out at 16.4 nM; in assay [2], 18700 nM.

B8: feline IgG1a S252R/S428L/S434F (antibody, part only; not given: Variable domains, not shown: another chain or arm of the molecule)
constant: ASTTAPSVFPLAPSCGTTSGATVALACLVLGYFPEPVTVSWNSGALTSGVHTFPAVLQASGLYSLSSMVTVPSSRWLSDTFTCNVAHPPSNTKVDKTVRKTDHPPGPKPCDCPKCPPPEMLGGPSIFIFPPKPKDTLRISRTPEVTCLVVDLGPDDSDVQITWFVDNTQVYTAKTSPREEQFNSTYRVVSVLPILHQDWLKGKEFKCKVNSKSLPSPIERTISKAKGQPHEPQVYVLPPAQEELSRNKVSVTCLIKSFHPPDIAVEWEITGQPEPENNYRTTPPQLDSDGTYFVYSKLSVDRSHWQRGNTYTCSVLHEALHFHHTQKSLTQSPGK
With B8, the results for the Kd in assay [1] and in assay [2] were 6.43 nM and 774 nM, respectively.

B9: feline IgG1a mutant ID No. 330: S428Y, D312P, S434Y, Q311K, L314K (antibody, part only; not given: Variable domains, not shown: another chain or arm of the molecule; small tags and cut ends)
constant: ASTTAPSVFPLAPSCGTTSGATVALACLVLGYFPEPVTVSWNSGALTSGVHTFPAVLQASGLYSLSSMVTVPSSRWLSDTFTCNVAHPPSNTKVDKTVRKTDHPPGPKPCDCPKCPPPEMLGGPSIFIFPPKPKDTLSISRTPEVTCLVVDLGPDDSDVQITWFVDNTQVYTAKTSPREEQFNSTYRVVSVLPILHKPWKKGKEFKCKVNSKSLPSPIERTISKAKGQPHEPQVYVLPPAQEELSRNKVSVTCLIKSFHPPDIAVEWEITGQPEPENNYRTTPPQLDSDGTYFVYSKLSVDRSHWQRGNTYTCSVYHEALHYHHTQKSLTQSPGK
With B9, in assay [3], the Kd came out at 0.00906 nM.

B10: feline IgG1a S428L/S434Y (antibody, part only; not given: Variable domains, not shown: another chain or arm of the molecule; small tags and cut ends)
constant: ASTTAPSVFPLAPSCGTTSGATVALACLVLGYFPEPVTVSWNSGALTSGVHTFPAVLQASGLYSLSSMVTVPSSRWLSDTFTCNVAHPPSNTKVDKTVRKTDHPPGPKPCDCPKCPPPEMLGGPSIFIFPPKPKDTLSISRTPEVTCLVVDLGPDDSDVQITWFVDNTQVYTAKTSPREEQFNSTYRVVSVLPILHQDWLKGKEFKCKVNSKSLPSPIERTISKAKGQPHEPQVYVLPPAQEELSRNKVSVTCLIKSFHPPDIAVEWEITGQPEPENNYRTTPPQLDSDGTYFVYSKLSVDRSHWQRGNTYTCSVLHEALHYHHTQKSLTQSPGK
Consider B10, for which the Kd was found to be 2.75 nM in assay [1] and 46.9 nM in assay [2].
